The values that follow come from patent US12570709B2, “Self-assembling peptide amphiphiles displaying a transforming growth factor beta 1 (TGF-ß1) mimetic epitope” (Northwestern University, priority 2021, dated 2026).

A short description of data set [1]: Transverse-relaxation (T2) NMR spectroscopy of PA assemblies. The format is physicochemical. The note with it: TGF PA co-assembled at 10 mol % with diluent backbone PA. The method, then: NMR spectra were acquired at 600 MHz on a Brucker Neo system with QCI-F cryoprobe. NMR spectra for PAs were recorded at 25° C. using TFA-d, H2O/D2O in 9/1 ratio (D2O contains 0.05 wt. % 3-(trimethylsilyl) propionic-2,2,3,3-d4 acid, sodium salt) as solvents. Chemical shifts are reported in part per million (ppm). The […] was 15 μs and typical spectra required 32 scans.
The spin-spin relaxation rates were measured using the Carr-Purcell-Gill-Meiboom pulse sequence with a delay time of 0.2 ms in a variable loop. The peak intensity data was fit to and exponential in the form:
[formula] where τ is the length of the delay time, R2 is the spin-spin relaxation rate and b are the baseline.^2 Cell Culture

In data set [2] the test system is collagen II, aggrecan and F-actin in human chondrocytes. Put plainly: Immunocytochemistry staining and fluorescence intensity analysis after three days. It is filed as cell-based. The note with it: three days in vitro. On the procedure: For immunocytochemistry (ICC), 12-mm glass coverslips were coated with sterile filtered 0.01 mg/mL poly-D-lysine (Sigma-Aldrich) solution and incubated overnight at 37° C. The coverslips were washed three times with sterile water and air-dried for at least 30 minutes. Cells were seeded on coverslips at a density of approximately 3,000 cells/coverslip and cultured for 24 h. Cells were then treated with PA in solution for 3 days in vitro. Following treatment, cells were fixed in 4% paraformaldehyde for 15 minutes at room temperature.
Fixed samples were permeabilized and blocked in a solution of 0.1% (v/v) Triton X-100 and 1% normal horse serum (Invitrogen) for 2 hours at room temperature. Samples were incubated with primary antibodies overnight at 4° C. The following primary antibodies were used: rabbit anti-Sox9 (1:500, Abcam), mouse anti-Aggrecan (1:500, ThermoFisher), mouse anti-Collagen II (1:500, ThermoFisher), and mouse anti-Nuclei (1:500, Sigma-Aldrich). The next day, samples were incubated with AlexaFluor 488 secondary antibody, AlexaFluor 555 secondary antibody, Phalloidin AlexaFluor 488, and/or Phalloidin AlexaFluor 633 (1:1000, Invitrogen) for 2-3 h at room temperature. For 2D cell culture, samples were then incubated with DAPI (1:1000, Invitrogen) for 10 minutes at room temperature. If not already on a glass coverslip, samples were mounted with Immu-Mount (Thermo Scientific) and imaged on a Nikon A1R Spectral microscope. Image analysis was performed using ImageJ software.

Data set [3] can be described thus: Rheology of PA hydrogels (strain sweep, G′/G″ crossover). It is filed as physicochemical. The note with it: PA gels, 10 mol % co-assemblies. On the procedure: Gels were made using 2 wt % PA solutions prepared as previously described, using 10 mol % co-assemblies of epitope PA with diluent PA. 12-well chamber slides (Ibidi) were coated with 0.01 mg/mL poly-D-lysine (Sigma-Aldrich) solution and incubated overnight at 37° C. The wells were washed three times with water and air-dried for at least 30 minutes. 120 μL of PA solution was pipetted evenly into the well and gelling solution comprised of 110 mM NaCl, 3 mM KCl, and 25 mM CaCl2 was pipetted dropwise on top of the PA solution. The gels were incubated at 37° C. for 30 minutes, and then excess gelling solution was removed.
Measurements were performed on an Anton Paar MCR302 rheometer with a 25 mm parallel-plate fixture. 120 μL of the PA/HA hybrid slurry was placed on the bottom plate and 30 μL of a 50 mM CaCl2/75 mM NaCl gelling solution was placed on the upper fixture. The fixture was lowered to a gap of 0.5 mm for 10 min during which time a 0.1% oscillatory strain was applied with a 10 rad/s angular frequency. The gap height was allowed to vary to keep the normal force at 0 N. Next, a strain sweep was performed at 10 rad/s from 0.1% to 100% strain to measure the strain to break the gel.

In data set [4] the test system is C28/I2 human articular chondrocytes.
Experimental: PA solutions (backbone PA, TGF PA, ln TGF PA, and peptide only) were prepared at 1 wt % as previously described, under sterile conditions. For cell treatments lasting <24 h, PA treatment solutions or native rhTGF-β1 protein (R&D Systems) were diluted in starvation medium, which comprised of DMEM High Glucose Medium (Gibco) supplemented with 0.5% fetal bovine serum (Denville Scientific), 100 U/mL penicillin, and 100 μg/mL streptomycin (Gibco). For cell treatments lasting 24 h or more, PA treatment solutions or native rhTGF-β1 protein (R&D Systems) were diluted in complete growth medium. PA solutions were prepared at a range of concentrations, 1, 10, 50, and 100 μM, where the concentration refers to the concentration of the epitope PA.
For cell viability assays, cells were seeded in 48-well plates at a density of approximately 15,400 cells/well and cultured for 24 h. Cells were then treated with PA in solution for 24 h or 3 days in vitro.
For 2D viability assays, cells were cultured and treated with PA solutions in vitro as previously described. After 24 h or 3 days of culture, cells were washed with HBSS (Gibco), and media was exchanged with HBSS containing 2 μM Calcein AM (Invitrogen) and 100 ng/mL propidium iodide (Sigma-Aldrich) for 30 minutes at 37° C. Cells were washed with HBSS and imaged.
Data set [5] can be described thus: Fluorescence anisotropy of TAMRA-labeled epitopes. Conditions: 10 mol % co-assembly. The format is physicochemical. The method, then: PA co-assemblies of diluent PA, TGF-β1 mimetic PA, and fluorescent dye-conjugated TGF-β1 mimetic PA were prepared in a 90:8:2 mol % ratio. The dye-conjugated PA was synthesized as previously described with a tetramethylrhodamine (TAMRA) molecule conjugated to the N-terminal amine of the TGF-β1 mimetic epitope. The PA solutions were prepared as previously described and diluted immediately before measurement to 100 μM PA, 100 μM CaCl2), and 30 mM NaCl. Fluorescence measurements were performed on an ISS PC1 photon counting steady-state fluorescence spectrometer equipped with a 300 W xenon arc lamp with power set to 18 A. Excitation slit widths of 1 mm (8 nm bandwidth) and emission slit widths of 0.5 mm (4 nm bandwidth) were used. Fluorescence anisotropy measurements were performed with λex=554 nm and λem=580 nm according to the equation:
[formula] Where F∥ is the intensity parallel to the excitation plane, F⊥ is the intensity perpendicular to the excitation plane, and g is the g-factor, which accounts for differences in emissions between the perpendicular and parallel gratings.^1 Measurements were taken in triplicate and averaged for final data analysis. Transverse-Relaxation Nuclear Magnetic Resonance Spectroscopy

Data set [6] relates to collagen II, COMP, aggrecan and Sox9 in human chondrocytes. Kind of data set: Western blot of ECM proteins after three days treatment. It is filed as cell-based. The note with it: 10 μM, three days in vitro. The method, then:
For western blot of 4 h PA treatments, cells were seeded in 6-well plates at a density of 600,000 cells/well and cultured for 24 h. […] Cells were then treated with PA in solution for 4 h in vitro. For western blot of 3-day PA treatments, cells were seeded in 6-well plates at a density of 230,000 cells/well and cultured for 24 h. Cells were then treated with PA in solution for 3 days in vitro.
Protein was extracted from cells using Halt Protease and Phosphatase Inhibitor Cocktail (Thermo Scientific) and a BCA assay (Thermo Scientific) was performed to determine protein content of each sample. Cell protein was loaded into and separated using a 4-20% SDS-PAGE gel (Bio-Rad). It was then electrotransferred from the gel to a nitrocellulose membrane (Bio-Rad). The membranes were blocked with 10% milk solution (Bio-Rad) for 30 minutes followed by an overnight incubation with primary antibodies at 4° C. The following primary antibodies were used: rabbit anti-pSmad2 (1:1000, Cell Signaling), rabbit anti-Smad2 (1:1000, Cell Signaling), rabbit anti-Sox9 (1:500, Abcam), mouse anti-Aggrecan (1:500, ThermoFisher), rabbit anti-COMP/Cartilage oligomeric matrix protein (1:500, Abcam), mouse anti-Collagen II (1:500, ThermoFisher), and mouse anti-Actin (1:1000, Novus Bio). Membranes were then incubated with their corresponding secondary HRP-conjugated antibodies (1:1000, ThermoFisher). Protein signals were detected using Radiance Bioluminescent ECL substrate (Azure Biosystems). Densitometry analysis, standardized to total receptor content or actin as a control for protein loading, was performed using ImageJ software. For quantification, experimental triplicate samples were analyzed, and two different experiments were conducted.
(A western blot detects proteins with antibodies after separation by electrophoresis.)

Bridge positions count the residues as written; N and C are the ends. Ends that are not written are not given here. I, II: the chains in the order shown. * marks the point of attachment. Palmitoyl = CCCCCCCCCCCCCCCC(=O)*

As to “TGF PA-a: backbone PA-a (SEQ ID NO: 7) conjugated to cyclic TGF-β1 mimetic peptide (SEQ ID NO: 1) by a linker; co-assembled with diluent Backbone PA-a (chain Palmitoyl-AAEEK-OH; peptide CESPLKRQC; disulfide II:1-II:9; not fully specified (some residues); also: co-assembled with diluent backbone PA-a)”, the “relaxation rate for the alkyl tail protons, compared with TGF PA-b assemblies” value in data set [1] was “nearly five times higher”. For the same substance, in data set [2] (10 μM, ICC), the aggrecan synthesis entry is given as “significantly increased aggrecan synthesis at similar levels” and the “collagen II production compared with native rhTGF-β1” value was “significantly more collagen II production than native rhTGF-β1”. The “chondrocyte phenotype (F-actin staining)” value in data set [2] is “maintained healthy chondrocyte phenotypes and prevented hypertrophy”. Further, in data set [3], the “G′/G″ crossover % strain” value worked out at 5.80 ± 1.40% and the “G′/G″ crossover storage modulus” value was 0.63 ± 1.14 kPa. For the same substance, the “biocompatibility compared with corresponding Backbone PA-b systems” value in data set [4] was “higher biocompatibility”. Further, in data set [5], the “fluorescence anisotropy (epitope rotational diffusion), compared to TGF PA-b” value is “significantly lower anisotropy values”. In addition, in data set [6], the “ECM synthesis (collagen II, COMP, aggrecan, Sox9)” value was “upregulated ECM synthesis significantly more than all other PA treatments” and the “levels of collagen II compared with native rhTGF-β1 protein” value is listed as “significantly higher levels of collagen II”.
